Measurements: the RNAGym collection of RNA variant scans (doi:10.7554/elife.90254)

B1: OR4K15 (parent)
chain: GUUAACGGUCAUAGGCCAUGGAAACUAGGAGCACCAUUUCGCUGCCAGUGAAGAAAUGAACAAAGAAAAUCUGGGCCAGGCAGGCAUCAAAAGAAAUAGUCUUGCGCUCAACCAGAAAGUCUGUAAUCAUUUUAAGGGUA

Variants of: B1
Test: self-cleavage, relative activity (ratio to wild type); higher = more cleavage; in vitro, sequencing; the parent is a self-cleaving ribozyme

Variant | self-cleavage
A96G A140G | 1.47
A91U A98G | 0.61
A96U U130C | 1.13
A92U A94U | 2.03
A91G U133C | 1.1
A92U U122C | 1.3
A94G U102A | 0.96
A92U G123U | 2.07
A90U U124G | 1.66
A96G A125U | 1.42
A96G A125G | 0.69
A95U A98G | 1.46
A94G A96G | 1.35
A94G A96U | 0.68
A91G A134G | 0.97
A91G C109U | 0.4
A90U A114U | 0.04
A96G A98U | 2.3
A96G A98G | 0.91
A96G A98C | 0.63
A92U A126U | 1.02
A90U U103C | 1.27
A96G U130C | 0.97
A92U U139C | 1.43

Variant | self-cleavage
A92G U131C | 0.49
A91C | 1.53
A91U | 1.74
A91G | 0.97
A96G A111U | 0.11
A96G A111G | 0.02
A94U G106U | 0.01
U97C A110U | 1.02
A96U U102C | 2.54
A96U U102A | 1.08
A91G A114C | 0.02
A96U G138U | 1.75
A94U A129U | 1.22
A91G A95C | 0.94
A91G A95G | 1.76
A95C A110G | 0.16
A92G A95U | 1.8
A95U A111G | 0.05
A96G U127C | 0.58
A96G U127A | 2.73
A96G G106C | 0.02
A96G G106U | 0.01
A92U A118G | 1.02
A95G U133C | 1.23

Variant | self-cleavage
A92C C101A | 0.13
A92C A129G | 1.66
A95G A125G | 1.02
A95G A96U | 0.7
A90U A134U | 1.96
A90U A134G | 1.26
U97C G123A | 1.14
U97A A140G | 1.98
A94G U132C | 1.52
U97A A125G | 0.86
A94U A125C | 1.08
A95G A114U | 0.42
A95G A135C | 2.68
A95G A135U | 1.45
A95G A135G | 2.42
A96C A116G | 0.33
A95G G106A | 0
A92U U102C | 2.01
A92G A134U | 2.03
A90G U139C | 1.2
A94G A134U | 1.58
A91U A125G | 0.38
A92G C101U | 0.12
A92G A117U | 0.8

Variant | self-cleavage
A92G A117G | 1.47
U97A U139A | 1.2
A90U U100A | 0.15
A90U U100C | 2.02
A92G U103C | 0.6
A92G U103G | 0.03
A90U A92G | 1.38
A94G G106A | 0
A91G A140G | 1.21
A90U A135G | 2.04
A95G A126G | 1.12
U97C A98C | 0.75
A95U U132C | 1.4
A92G A129G | 0.74
A92C U124C | 0.52
A92G U120C | 0.64
A92U U130C | 1.59
A91G U124A | 1.78
A91G U124C | 0.62
U97A A98U | 2.29
A94G U130C | 1.16
A94G U130A | 1.41
A96U U132G | 1.55
A95G A117U | 1.7

Variant | self-cleavage
A95G A117G | 2.65
A95G A134G | 1.89
A96G U131C | 1.73
A91G C128A | 0.44
A96U A125G | 0.61
A94C A96G | 0.94
A92G G123A | 2.51
A92U U100C | 2.23
A92G A126C | 0.94
A94G A111G | 0.03
A92G U139C | 1.75
A94U A118C | 1.53
A94U A118G | 1.51
A96C U130C | 0.69
A90U U127C | 1.37
A91G G138A | 0.95
A95G G136A | 2
A91U A135U | 1.6
U97A A117G | 2.09
U97C A134U | 1.69
A96G U103C | 1.27
U97A U133C | 2.13
A92G U97C | 1.57
A96C U102C | 2.16

Variant | self-cleavage
U97C U120A | 0.31
A90U A111G | 0.02
A91C A114U | 0.05
A91G U103C | 0.46
A90U A91G | 1.95
A96G U97C | 0.99
A96G U97A | 0.94
A94U C107U | 0.01
U97A A114G | 0.64
A90G U132A | 0.56
A90G U132C | 1.12
A94G U100C | 2.37
U97C G115U | 0.03
G93A A111G | 0.04
A92U A114U | 0.14
A92U A114G | 0.17
A96G C113G | 0.02
A96U U127C | 1.7
A91U A118G | 0.94
A91G U139C | 1.71
A91G U139A | 1.64
A94G C101A | 0.3
A94G A116G | 0.39
A94G A116U | 0.38

Variant | self-cleavage
A94G A116C | 0.24
A95G A111G | 0.03
A95G A111C | 0.02
A95G A111U | 0.15
A94C U100C | 2.31
U97C A125G | 0.31
G93A A126G | 2.16
A94U A111U | 0.12
A94U A111G | 0.02
A91G C112U | 0.01
A95G G138C | 2.62
A91G U108A | 0.01
U97C A114G | 0.13
A91U A95G | 2.58
A96U A118G | 1.17
A90U U108C | 0.01
A94G A117G | 1.92
A95G A129U | 1.52
A96U A129G | 1.36
A96C U103C | 0.9
A95U C105U | 0.45
A94U U100C | 2.56
A91U U122C | 1.4
